Experimental data published in paper doi:10.1101/2021.08.26.457770 (bioRxiv, 2021).
Ends that are not written are not given here.

T1: SspB protein (ClpX adaptor) (Escherichia coli, UniProt P0AFZ3 1-165)
T1 sequence: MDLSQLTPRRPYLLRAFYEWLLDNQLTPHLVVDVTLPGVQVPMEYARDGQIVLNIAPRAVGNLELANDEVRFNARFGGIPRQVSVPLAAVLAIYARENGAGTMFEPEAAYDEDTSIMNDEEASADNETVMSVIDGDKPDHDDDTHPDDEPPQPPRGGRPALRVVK


Molecular target: T1, SspB protein (ClpX adaptor)
Assay: MST

| Binder | Kd |
| --- | --- |
| eGFP-AANDENYSENYADAS (not fully specified) [eGFP-AANDENYSENYADAS] | 300 nM |
| eGFP-AANDENYSENY (not fully specified) [eGFP-AANDENYSENY] | 100 nM |
| eGFP-AANDENYADAS (not fully specified) [eGFP-AANDENYADAS] | 330 nM |
| eGFP-AANDENYALAA (not fully specified) [eGFP-AANDENYALAA] | 80 nM |
